Here are results for one molecule from patent US20240239890A1 (Chugai, published 2024).

In assay [1] the target is T1, Human RNF43 ECD with Fc region fused on its C-terminus (human).
T1 construct: also called RNF43-Fc
T1 chain: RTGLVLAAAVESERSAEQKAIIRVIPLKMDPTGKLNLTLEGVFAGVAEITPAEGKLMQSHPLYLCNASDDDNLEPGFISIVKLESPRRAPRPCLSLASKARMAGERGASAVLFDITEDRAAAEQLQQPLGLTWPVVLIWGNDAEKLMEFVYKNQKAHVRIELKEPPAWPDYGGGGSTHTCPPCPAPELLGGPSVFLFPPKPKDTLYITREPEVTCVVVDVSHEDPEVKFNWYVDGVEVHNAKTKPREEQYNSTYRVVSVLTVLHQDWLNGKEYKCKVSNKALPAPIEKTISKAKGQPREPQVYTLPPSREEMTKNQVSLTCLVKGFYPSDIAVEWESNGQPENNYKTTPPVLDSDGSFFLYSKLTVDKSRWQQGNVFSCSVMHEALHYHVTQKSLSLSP
Description: competition ELISA on coated RNF43-Fc; first antibody unlabelled at 10x its EC50, second (reference) antibody biotinylated RNN0187jj at its EC50. Here is the method:
(§1) EC50 concentration for the binding of each anti-RNF43 monospecific antibody to RNF43-Fc (described in Example 2) was first determined by ELISA assay, using the biotinylated antibodies. In brief, RNF43-Fc at 5 micro g/mL or 1 micro g/mL was coated on Maxisorp plate (NUNC) at 4 degrees C. overnight. The coated plate was then washed with PBS-T, followed by blocking with Blocking One solution (Nacalai Tesque) for 2 hours at room temperature. Serially diluted, biotinylated anti-RNF43 monospecific antibody was then added and incubated for 1 hour at room temperature. After washing with PBS-T, StAv-HRP (PIERCE) was added and incubated for 1 hour at room temperature. After washing with PBS-T, ABTS Peroxidase substrate (SeraCare Life Sciences) was added and signal intensity was measured using Multiskan™ GO Microplate Spectrophotometer. EC50 concentration for the binding of the anti-RNF43 monospecific antibody to RNF43-Fc was calculated using Non-linear regression 4-parameter fit. The normalized absorbance at 405 nm/570 nm measured when EC50 concentration of anti-RNF43 antibodies was applied is denoted as AO.
(§2) To evaluate binding competition between the anti-RNF43 monospecific antibodies, ELISA assay with similar setting was conducted. RNF43-Fc was first coated in Maxisorp plate overnight. […] After washing with PBS-T, ABTS Peroxidase substrate was added and signal intensity was measured using Multiskan™ GO Microplate Spectrophotometer. The normalized absorbance at 405 nm/570 nm is denoted as A.

For assay [2], the target named is T1, Human RNF43 ECD with Fc region fused on …. Put plainly: competition ELISA on coated RNF43-Fc; first antibody unlabelled at 10x its EC50, second (reference) antibody biotinylated RNN0192nn at its EC50. Here is the method: as §1, §2
On the technique in general: An ELISA detects its analyte on a solid surface through an enzyme-linked reagent.

The target is the same in assay [3]. Description: competition ELISA on coated RNF43-Fc; first antibody unlabelled at 10x its EC50, second (reference) antibody biotinylated RNN0193jj at its EC50. How it is done:
as §1, §2

Assay [4] shares this target. Put plainly: competition ELISA on coated RNF43-Fc; first antibody unlabelled at 10x its EC50, second (reference) antibody biotinylated RNN0242nn at its EC50. Here is the method: as §1, §2
Assay [5] has the same target. Put plainly: competition ELISA on coated RNF43-Fc; first antibody unlabelled at 10x its EC50, second (reference) antibody biotinylated RNN0246jj at its EC50. Here is the method:
as §1, §2

For assay [6] the target is unchanged. Put plainly: competition ELISA on coated RNF43-Fc; first antibody unlabelled at 10x its EC50, second (reference) antibody biotinylated RNN0207ii at its EC50. How it is done:
as §1, §2

B1: RNN0246jj with rabbit constant region (antibody)
heavy: QSVEESGGRLVTPDETLTLTCTVSGFSLNNYHMIWVRQAPGEGLEYIGFINTGGSAYYANWAKGRFTISKTSTTVDLKITSPTTEDTATYFCASVSWRTDYSFELWGPGTLVTVSSGQPKAPSVFPLAPCCGDTPSSTVTLGCLVKGYLPEPVTVTWNSGTLTNGVRTFPSVRQSSGLYSLSSVVSVTSSSQPVTCNVAHPATNTKVDKTVAPSTCSKPMCPPPELLGGPSVFIFPPKPKDTLMISRTPEVTCVVVDVSQDDPEVQFTWYINNEQVRTARPPLREQQFNSTIRVVSTLPIAHQDWLRGKEFKCKVHNKALPAPIEKTISKARGQPLEPKVYTMGPPREELSSRSVSLTCMINGFYPSDISVEWEKNGKAEDNYKTTPTVLDSDGSYFLYSKLSVPTSEWQRGDVFTCSVMHEALHNHYTQKSISRSPGK
light: AQVLTQTPSPVSAAVGGTVTISCQASQSVYANNRLAWFQQKPGQPPKLLIYSASTLASGVPSRFKGSGSGTQFTLTISGVQCDDAATYYCAGAYTGNIYTFGGGTKVEIKRDPVAPTVLIFPPAADQVATGTVTIVCVANKYFPDVTVTWEVDGTTQTTGIENSKTPQNSADCTYNLSSTLTLTSTQYNSHKEYTCKVTQGTTSVVQSFNRGDC
On to B1, for which the “binding inhibition (%)” value in assay [1] was 12.6%; in assay [2], -0.13%; in assay [3], 1.17%; in assay [4] it was 22.6%; in assay [5], 29.8%; in assay [6] it was -0.14%.
